“Also recorded” adds a separate entry of the source.
Test: Native mass spectrometry of pH-induced changes in oligomeric state
Type: physicochemical
Conditions: for pH transition point of disassembly (pH set point, pH0): evaluated from pH 7 down to pH 3; for reversibility of disassembly: pH lowered with acetic acid, then raised by ammonia or buffer exchange
Method: Samples were buffer exchanged twice into 200 mM ammonium acetate (NH4Ac; MilliporeSigma) using Micro Bio-Spin P-6 columns (Bio-Rad). Protein concentrations were determined by UV absorbance using a Nanodrop 2000c spectrophotometer (Thermo Fisher Scientific) and diluted to make up a 10-fold stock solution (50 μM and 16.7 μM monomer and trimer concentration, respectively). 1 μL of this solution was mixed with 9 μL 200 mM NH4Ac/50 mM triethylammonium acetate (TEAA; MilliporeSigma), adjusted with acetic acid (Fisher Scientific) to obtain the desired final pH and incubated on ice for 30 min. […] 5 μL samples were filled into an in-house pulled glass capillary and ionized by nESI at a monomer or a trimer concentration of 5 μM or 1.67 μM respectively. All pH titration data were acquired on an in-house modified SYNAPT® G2 HDMS (Waters Corporation) with a surface-induced dissociation (SID) device incorporated between a truncated trap traveling wave ion guide and the ion mobility cell (39). The following instrument parameters were used spray voltage 0.9-1.3 kV; sampling cone, 20 V; extraction cone, 2 V; source temperature, room temperature; trap gas flow, 4 mL/min; trap bins, 45V. The data were processed with MassLynx™ v4.1 and DriftScope™ v2.1. For relative quantification, charge state series were extracted from DriftScope™, and smoothed spectra (mean; window 20; number of smooths 20) were integrated.
Python scripts were written to generate theoretical models according Equation 1, and curve-fitting to native mass spectrometry data (FIGS. 1, 3, 5) according to Equation 2 by nonlinear least squares using curve fit from scipy.optimize. The free energy estimates for individual n, m, and l layers used in Equation 1 modeling were estimated by solving linear equations as follows: values for the free energy of folding for designs pRO-2 and variants were estimated from GdmCl denaturation experiments (FIG. 11); each of these designs have different numbers of n, m, and l layers, thus series of linear equations relating the number of each layer type to the total free energies of folding were solved to estimate dG values of the individual layers of each type.

Molecule | pH transition point of disassembly (pH set point, pH0) (native MS) | reversibility of disassembly | other results
pRO-2.1: pRO-2 variant, SEQ ID NO: 3-4 (protein) chain 1: MGSHHHHHHGSGSENLYFQGSEYEIRKALEELKAALAELKRATASLRAITEELKKNPSEDALVEHNRAIVEHNAIIVEVLRIIAAVLELIVRAIK chain 2: SEYEIRKALEELKAALAELKRATASLRAITEELKKNPSEDALVEHNRAIVEHNAIIVEVLRIIAAVLELIVRAIK | ~3.5 pH |  | 
pRO-2.4: pRO-2 variant, SEQ ID NO: 9-10 (protein) chain 1: MGSHHHHHHGSGSENLYFQGSEYEIRKALEELKAATAELKRATASLRASTEELKKNPSEDALVENNRLIVEHNAIIVEHNRIIAAVLELIVRAIK chain 2: SEYEIRKALEELKAATAELKRATASLRASTEELKKNPSEDALVENNRLIVEHNAIIVEHNRIIAAVLELIVRAIK | higher transition pH | Re-association was induced | cooperativity of the pH-induced transition (native MS at different pH values): less cooperative
pRO-2.3: pRO-2 variant, SEQ ID NO: 7-8 (protein) chain 1: MGSHHHHHHGSGSENLYFQGSEYEIRKALEELKASTAELKRATASLRAITEELKKNPSEDALVEHNRAIVEHNAIIVENNRIIAAVLELIVRAIK chain 2: SEYEIRKALEELKASTAELKRATASLRAITEELKKNPSEDALVEHNRAIVEHNAIIVENNRIIAAVLELIVRAIK |  | Re-association was induced | 
pRO-2.2: pRO-2 variant, SEQ ID NO: 5-6 (protein) chain 1: MGSHHHHHHGSGSENLYFQGSEYEIRKALEELKAALAELKRATASLRAILEELKKNPSEDAIVEAIRAIVEHNAIIVEVLRIIAAVLELIVRAIK chain 2: SEYEIRKALEELKAALAELKRATASLRAILEELKKNPSEDAIVEAIRAIVEHNAIIVEVLRIIAAVLELIVRAIK |  |  | pH response of oligomeric state (pH-induced disassembly) (native MS, pH ~7 to ~3): eliminates the pH response altogether; also recorded: no significant pH response
pRO-4: designed heterodimer, SEQ ID NO: 27-28, chains 81 and 82 (protein, Synthetic polpypeptide; (1)..(18) Optional residues) chain 1: MDEEDHLKKLKTHLEKLERHLKLLEDHAKKLEDILKERPEDSAVKESIDELRRSIELVRESIEIFRQSVEEEEGSSHHHHHHSSGENLYFQGDVKELTKILDTLTKILETATKVIKDATKLLEEHRKSDKPDPRLIETHKKLVEEHETLVRQHKELAEEHLKRTR chain 2: MDEEDHLKKLKTHLEKLERHLKLLEDHAKKLEDILKERPEDSAVKESIDELRRSIELVRESIEIFRQSVEEEEGDVKELTKILDTLTKILETATKVIKDATKLLEEHRKSDKPDPRLIETHKKLVEEHETLVRQHKELAEEHLKRTR chain 3: MDEEDHLKKLKTHLEKLERHLKLLEDHAKKLEDILKERPEDSAVKESIDELRRSIELVRESIEIFRQSVEEEE chain 4: GSSHHHHHHSSGENLYFQGDVKELTKILDTLTKILETATKVIKDATKLLEEHRKSDKPDPRLIETHKKLVEEHETLVRQHKELAEEHLKRTR | ~4 pH |  | 
pRO-4 L23A/V130A: pRO-4 mutant heterodimer, SEQ ID NO: 29-30, 83-84 (protein, Synthetic polpypeptide; (1)..(18) Optional residues) chain 1: MDEEDHLKKLKTHLEKLERHLKLAEDHAKKLEDILKERPEDSAVKESIDELRRSIELVRESIEIFRQSVEEEEGSSHHHHHHSSGENLYFQGDVKELTKILDTLTKILETATKVIKDATKLLEEHRKSDKPDPRLIETHKKLVEEHETLARQHKELAEEHLKRTR chain 2: MDEEDHLKKLKTHLEKLERHLKLAEDHAKKLEDILKERPEDSAVKESIDELRRSIELVRESIEIFRQSVEEEEGDVKELTKILDTLTKILETATKVIKDATKLLEEHRKSDKPDPRLIETHKKLVEEHETLARQHKELAEEHLKRTR chain 3: MDEEDHLKKLKTHLEKLERHLKLAEDHAKKLEDILKERPEDSAVKESIDELRRSIELVRESIEIFRQSVEEEE chain 4: GSSHHHHHHSSGENLYFQGDVKELTKILDTLTKILETATKVIKDATKLLEEHRKSDKPDPRLIETHKKLVEEHETLARQHKELAEEHLKRTR | ~4.6 pH |  | 
